Measurements taken from paper PMC11969553, “Expression of Human β3GalT5–1 in Insect Cells as Active Glycoforms for the Efficient Synthesis of Cancer-Associated Globo-Series Glycans” (Journal of the American Chemical Society, 2025).
Residue numbers refer to the chain shown, from its start. Names and notes keep the numbering of the source.

T1: membrane-bound β3GalT5–1 (Homo sapiens, UniProt Q9Y2C3)
T1 construct: gene B3GALT5; full length M1-V310, C-terminal Flag tag, expressed in HEK293 cells, LMNG-extracted, anti-Flag purified
T1 sequence (Q9Y2C3 1-310): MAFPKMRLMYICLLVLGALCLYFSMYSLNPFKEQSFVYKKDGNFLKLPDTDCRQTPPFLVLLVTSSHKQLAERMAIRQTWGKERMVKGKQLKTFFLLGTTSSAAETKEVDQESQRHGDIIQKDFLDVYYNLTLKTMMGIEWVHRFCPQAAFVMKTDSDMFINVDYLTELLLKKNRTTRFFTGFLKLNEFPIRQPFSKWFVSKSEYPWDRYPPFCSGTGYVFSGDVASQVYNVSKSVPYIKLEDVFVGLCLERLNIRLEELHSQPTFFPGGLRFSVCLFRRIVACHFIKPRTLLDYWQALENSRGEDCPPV

T2: soluble β3GalT5-1 (insect) (Homo sapiens, UniProt Q9Y2C3)
T2 construct: gene B3GALT5; crystal: Phe31-Pro308 stated, Asp41-Pro308 visible
T2 sequence (Q9Y2C3 29-310): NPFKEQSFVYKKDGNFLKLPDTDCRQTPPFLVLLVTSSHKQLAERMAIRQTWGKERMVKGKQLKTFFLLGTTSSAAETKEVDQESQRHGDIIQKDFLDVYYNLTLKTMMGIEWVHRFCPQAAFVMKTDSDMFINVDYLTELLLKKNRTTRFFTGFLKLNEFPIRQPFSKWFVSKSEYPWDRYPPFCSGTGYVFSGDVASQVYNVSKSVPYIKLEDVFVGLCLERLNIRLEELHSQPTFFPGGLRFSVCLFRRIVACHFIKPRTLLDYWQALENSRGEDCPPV

T3: membrane-bound β3GalT5–2 (Homo sapiens, UniProt A0A0A0MS93)
T3 construct: gene B3GALT5; full length, 314 residues, C-terminal Flag tag, expressed in HEK293 cells, LMNG-extracted, anti-Flag purified
T3 sequence (A0A0A0MS93 1-314): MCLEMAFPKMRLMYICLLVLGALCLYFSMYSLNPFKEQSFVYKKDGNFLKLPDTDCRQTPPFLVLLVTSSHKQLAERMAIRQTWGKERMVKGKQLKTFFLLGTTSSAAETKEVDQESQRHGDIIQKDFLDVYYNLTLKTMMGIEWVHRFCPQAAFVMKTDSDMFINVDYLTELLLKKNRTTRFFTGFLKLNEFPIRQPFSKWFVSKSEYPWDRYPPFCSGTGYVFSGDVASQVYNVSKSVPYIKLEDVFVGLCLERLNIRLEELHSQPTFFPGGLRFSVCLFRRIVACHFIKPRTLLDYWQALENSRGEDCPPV

B1: soluble β3GalT5-1 (insect) (Homo sapiens) (protein)
chain: T2 sequence (Q9Y2C3 29-310)
notes: crystal: Phe31-Pro308 stated, Asp41-Pro308 visible
B2: soluble β3GalT5-1 (HEK293) (Homo sapiens; S66A) (protein)
chain: T2 sequence (Q9Y2C3 29-310) with S38A
notes: soluble luminal domain N29-V310, no TM; expressed in HEK293 cells, complex-type N-glycans
B3: soluble β3GalT5-1 (HEK293) (Homo sapiens; Q69A/S66A) (protein)
chain: T2 sequence (Q9Y2C3 29-310) with S38A, Q41A
notes: as for B2
B4: soluble β3GalT5-1 (HEK293) (Homo sapiens; Q69M) (protein)
chain: T2 sequence (Q9Y2C3 29-310) with Q41M
notes: as for B2
B5: soluble β3GalT5-1 (HEK293) (Homo sapiens) (protein)
chain: T2 sequence (Q9Y2C3 29-310)
notes: as for B2
B6: soluble β3GalT5-1 (HEK293) (Homo sapiens; Q69A) (protein)
chain: T2 sequence (Q9Y2C3 29-310) with Q41A
notes: as for B2
B7: soluble β3GalT5-1 (HEK293) (Homo sapiens; Q69M/S66A) (protein)
chain: T2 sequence (Q9Y2C3 29-310) with S38A, Q41M
notes: as for B2
B8: β3GalT5–1 (soluble domain): PNGase F (protein)
parent chain: T1 sequence (Q9Y2C3 1-310)
B9: β3GalT5–1 (soluble domain): kifunensine (high mannose glycoforms) (protein)
parent chain: T1 sequence (Q9Y2C3 1-310)
B10: β3GalT5–1 (soluble domain): kifunensine then Endo-H (mono-GlcNAc) (protein)
parent chain: T1 sequence (Q9Y2C3 1-310)
B11: β3GalT5–1 (soluble domain): expression in HEK293 (complex-type glycoforms) (protein)
parent chain: T1 sequence (Q9Y2C3 1-310)

Experiments:
membrane-bound β3GalT5–1 = target: T1, membrane-bound β3GalT5–1; assay: galactosyltransferase activity; type: biochemical; conditions: UDP-Gal, with or without 1% LMNG
[1] = target: T2, soluble β3GalT5-1 (insect); assay: X-ray crystal structure; type: binding; conditions: acceptor site, Mn2+
membrane-bound β3GalT5–2 = target: T3, membrane-bound β3GalT5–2; assay: galactosyltransferase activity; type: biochemical; conditions: UDP-Gal, with or without 1% LMNG
[2] = substrate: C=CCO[C@@H]1O[C@H](CO)[C@@H](O[C@@H]2O[C@H](CO)[C@H](O[C@H]3O[C@H](CO)[C@H](O)[C@H](O[C@@H]4O[C@H](CO)[C@H](O)[C@H](O)[C@H]4NC(C)=O)[C@H]3O)[C@H](O)[C@H]2O)[C@H](O)[C@H]1O; assay: UDP release, Michaelis-Menten fit; type: biochemical, Homo sapiens; conditions: 0.1 mM UDP-Gal, HEPES, 0.1 mM MnCl2, 0-4 mM substrate; pH 7.0
Source text: UDP release, Michaelis-Menten fit on soluble β3GalT5-1 (insect)

[3] = substrate: C=CCO[C@@H]1O[C@H](CO)[C@@H](O[C@@H]2O[C@H](CO)[C@H](O[C@H]3O[C@H](CO)[C@H](O)[C@H](O[C@@H]4O[C@H](CO)[C@H](O)[C@H](O)[C@H]4NC(C)=O)[C@H]3O)[C@H](O)[C@H]2O)[C@H](O)[C@H]1O; assay: UDP release, Michaelis-Menten fit; type: biochemical, Homo sapiens; conditions: 10 mM UDP-sugar (UDP-Gal) fixed, 20 mM HEPES pH 7.4, 0.1 mM MnCl2
Source text: (§1) UDP release, Michaelis-Menten fit on soluble β3GalT5-1 (HEK293)

[4] = substrate: O=c1ccn([C@@H]2O[C@H](COP(=O)(O)OP(=O)(O)O[C@H]3O[C@H](CO)[C@H](O)[C@H](O)[C@H]3O)[C@@H](O)[C@H]2O)c(=O)[nH]1; assay: UDP release, Michaelis-Menten fit; type: biochemical, Homo sapiens; conditions: 2 mM Gb4 glycan fixed, 20 mM HEPES pH 7.4, 0.1 mM MnCl2
Source text: as §1

[5] = galactosyltransferase activity assay (Figure S6E); conditions: control: untreated Sf9-expressed enzyme (paucimannose glycoforms)
[6] = Michaelis–Menten kinetics by UDP release; conditions: glycan changed form; control: Sf9 insect cell-expressed enzyme (paucimannose)

| Molecule | Km [3] | kcat [3] | kcat/Km [3] | Km [4] | kcat [4] | kcat/Km [4] | also measured |
| --- | --- | --- | --- | --- | --- | --- | --- |
| CC(=O)N[C@H]1[C@H](O[C@H]2[C@@H](O)[C@@H](CO)O[C@H](O[C@@H]3[C@H](O)[C@@H](O)[C@H](O[C@H]4[C@H](O)[C@@H](O)C(O)O[C@@H]4CO)O[C@@H]3CO)[C@@H]2O)O[C@H](CO)[C@H](O)[C@@H]1O (stereo partly shown) [Gb4 glycan] | – | – | – | – | – | – | galactosyltransferase activity (membrane-bound β3GalT5–1): regardless of whether Gb4 or Gb4 glycan was used as a substrate; X-ray crystal structure [1]: the acceptor substrate Gb4 glycan is represented by pink sticks; galactosyltransferase activity (membrane-bound β3GalT5–2): regardless of whether Gb4 or Gb4 glycan was used as a substrate |
| B1 | – | – | – | – | – | – | Km [2]: 660 ± 400 µM; kcat [2]: 0.0583 ± 0.00667 s⁻¹; kcat/Km [2]: 88.3 ± 16.7 M⁻¹ s⁻¹ |
| B2 | 1200 ± 200 µM | 0.0777 ± 0.005 s⁻¹ | 64.8 ± 31.7 M⁻¹ s⁻¹ | 350 ± 100 µM | 0.276 ± 0.0417 s⁻¹ | 781 ± 408 M⁻¹ s⁻¹ | – |
| B3 | 1110 ± 300 µM | 0.00783 ± 0.000833 s⁻¹ | 7 ± 3.33 M⁻¹ s⁻¹ | 320 ± 90 µM | 0.0273 ± 0.00333 s⁻¹ | 156 ± 45 M⁻¹ s⁻¹ | – |
| B4 | 420 ± 300 µM | 0.0107 ± 0.00167 s⁻¹ | 25.3 ± 8.33 M⁻¹ s⁻¹ | 210 ± 50 µM | 0.0585 ± 0.005 s⁻¹ | 282 ± 103 M⁻¹ s⁻¹ | – |
| B5 | 1400 ± 200 µM | 0.0448 ± 0.00333 s⁻¹ | 32 ± 16.7 M⁻¹ s⁻¹ | 140 ± 40 µM | 0.125 ± 0.0117 s⁻¹ | 870 ± 293 M⁻¹ s⁻¹ | – |
| B6 | 1210 ± 300 µM | 0.012 ± 0.00117 s⁻¹ | 10 ± 3.33 M⁻¹ s⁻¹ | 300 ± 50 µM | 0.0497 ± 0.00333 s⁻¹ | 165 ± 63.3 M⁻¹ s⁻¹ | – |
| B7 | 1650 ± 400 µM | 0.0248 ± 0.00167 s⁻¹ | 15 ± 6.67 M⁻¹ s⁻¹ | 270 ± 60 µM | 0.0773 ± 0.00667 s⁻¹ | 284 ± 113 M⁻¹ s⁻¹ | – |
| B8 | – | – | – | – | – | – | enzymatic_activity, fold_change ([5]; glycan lost): decreases |
| B9 | – | – | – | – | – | – | enzymatic_activity, fold_change ([5]; glycan changed form): increases |
| B10 | – | – | – | – | – | – | enzymatic_activity, fold_change ([5]; glycan lost): increases |
| B11 | – | – | – | – | – | – | enzymatic_activity, kcat_Km [6]: no change, 5.2 ± 3.0 vs 5.3 ± 1.0 |
